Experimental data from PMC6382702.

Tested on: T1, CagR (Streptomyces clavuligerus F613-1), ORF:155d736f
T1 sequence: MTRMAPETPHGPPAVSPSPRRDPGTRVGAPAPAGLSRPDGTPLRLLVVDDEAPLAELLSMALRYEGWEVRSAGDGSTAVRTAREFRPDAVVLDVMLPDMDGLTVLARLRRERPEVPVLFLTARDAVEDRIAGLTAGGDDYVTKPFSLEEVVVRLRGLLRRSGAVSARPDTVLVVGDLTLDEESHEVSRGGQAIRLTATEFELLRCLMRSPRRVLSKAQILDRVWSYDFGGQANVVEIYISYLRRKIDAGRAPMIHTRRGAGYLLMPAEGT
Assay: EMSA
Conditions: EMSA with 3.0 ug His-CagR and polydI/dC (1.0 mg as printed); buffer, pH and temperature not given (as in Zhang et al., 2015)

Sequence: CGACGCGCTCGGTCACAGGAATCTCCTTACGATGCATGCGGTGATGGAATAAGTATGCACTCGCCCGCATGTTTCGTCAATCATGGGTGCGCGATCGGTGCGTCCGACCGAAAGTGATCGGACGCTTACGCCATGGAGCGGCGCGCTGAACGCGTCGACGGAGGAATCCCCGGGGCCGTCGGACAGCGGCAGGGGTCTTCCGCACGGCGGCGGCCCGCCGCGGCATGCCGCAGGCCCCCGGCCGAGAGGGCCGGGGGCCTGCGGGGGTGGCGGCGCCGCGCCGGAGGGCCGGTCAGGCC (double strand) [argG upstream region (P2)]
- binding: binds
